Data as given in US20190071480A1 (Biogen, published 2019).

T1: extracellular domain of activin receptor type IIB (ActRIIBecd), biotinylated (Homo sapiens (Human), UniProt Q13705 27-117, amino-biotinylated with amine-PEG3-Biotin)
T1 construct: immobilised on a streptavidin-coated sensor chip; also called biotinylated ActRIIBecd; extracellular domain of ActRIIB
T1 sequence: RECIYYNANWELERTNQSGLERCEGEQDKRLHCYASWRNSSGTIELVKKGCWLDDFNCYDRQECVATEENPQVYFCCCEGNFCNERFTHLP


Tests used:
[1] = molecular target: T1, extracellular domain of activin …; experiment: BIAcore SPR as Example 5 (method not restated); SD ±1.67 nM
Procedure: (§1) Biosensor experiments. In one embodiment, experiments were performed on a BIAcore™ T100/T200 instrument (Pharmacia Biosensor AB) in the multichannel mode (serial flow path involving flow cells 1+2+3+4). Flow rate was 10 μl/min; temperature was 25° C.; and data were recorded at 2.5 points/s. All four segments of a sensor chip CMS were coated with streptavidin (Sigma) to a density of 2000 pg/mm² (2000 resonance units) by the aminocoupling procedure. ActRIIBecd (10 mg) and amine-PEG3-Biotin (10 mg, Pierce, Rockford, Ill.) were dissolved in 200 μl H₂O and 10 mg NaCNBH₃ was added to prepare biotinylated ActRIIBecd. The reaction mixture was heated at 70° C. for 24 h, after that a further 10 mg NaCNBH₃ was added and the reaction was heated at 70° C. for another 24 h. After cooling to room temperature, the mixture was desalted with the spin column (3,000 molecular weight cut off (MWCO)). […] Sensograms were recorded during flow of the analyte (the ActRIIBecd-associated polypeptides (i.e., domains) as previously described) first through flow cell 1 (control) then through flow cell 2 (biotinylated ActRIIBecd). […] The sensograms obtained at 1.11, 3.33, 10, 30, and 90 nM analyte were evaluated for equilibrium binding, association rate, and dissociation rate by using the programs supplied with the instrument (BIA evaluation 2.1; Software Handbook. 1995; Pharmacia Biosensor AB).

[2] = molecular target: T1, extracellular domain of activin …; experiment: Mean KD column of Table 5; method not restated (BIAcore as Example 5); species also listed in Table 4
Procedure: (§2) Biosensor experiments. In one embodiment, experiments were performed on a BIAcore™ T100/T200 instrument (Pharmacia Biosensor AB) in the multichannel mode (serial flow path involving flow cells 1+2+3+4). Flow rate was 10 μl/min; temperature was 25° C.; and data were recorded at 2.5 points/s. All four segments of a sensor chip CMS were coated with streptavidin (Sigma) to a density of 2000 pg/mm² (2000 resonance units) by the aminocoupling procedure. ActRIIBecd (10 mg) and amine-PEG3-Biotin (10 mg, Pierce, Rockford, Ill.) were dissolved in 200 μl H₂O and 10 mg NaCNBH₃ was added to prepare biotinylated ActRIIBecd. The reaction mixture was heated at 70° C. for 24 h, after that a further 10 mg NaCNBH₃ was added and the reaction was heated at 70° C. for another 24 h. After cooling to room temperature, the mixture was desalted with the spin column (3,000 molecular weight cut off (MWCO)). Biotinylated ActRIIBecd was collected, freeze-dried and used for streptavidin (SA) chip preparation. Amino-biotinylated ActRIIBecd was then immobilized independently on flow cells 2-4 for 10 minutes at a flow rate of 5 μL/min and a concentration of 20 μM in 10 mM sodium acetate, pH 4.0, at a density of 50-250 resonance units (RU). The stored polypeptides were dissolved in glycine buffer (2.5 g of glycine, 0.5 g of sucrose, 370 mg of L-glutamate, 10 mg of sodium chloride, and 10 mg of Tween 80 in 100 mL water, pH 4.5) to prepare 10 mg/mL solution and then diluted with previous glycine buffer to prepare analytes with various concentration. Sensograms were recorded during flow of the analyte (the ActRIIBecd-associated polypeptides (i.e., domains) as previously described) first through flow cell 1 (control) then through flow cell 2 (biotinylated ActRIIBecd). The sensogram obtained for flow cell 1 was subtracted from the sensogram obtained for flow cell 2. The sensograms obtained at 1.11, 3.33, 10, 30, and 90 nM analyte were evaluated for equilibrium binding, association rate, and dissociation rate by using the programs supplied with the instrument (BIA evaluation 2.1; Software Handbook. 1995; Pharmacia Biosensor AB).

[3] = molecular target: T1, extracellular domain of activin …; experiment: BIAcore SPR as Example 5 (method not restated); SD ±1.63 nM
Procedure: as §1

[4] = molecular target: T1, extracellular domain of activin …; experiment: Mean KD column of Table 5; method not restated (BIAcore as Example 5)
Procedure: as §2

[5] = molecular target: T1, extracellular domain of activin …; experiment: BIAcore SPR as Example 5 (method not restated); SD ±2.15 nM
Procedure: as §1

[6] = molecular target: T1, extracellular domain of activin …; experiment: BIAcore SPR as Example 5 (method not restated); SD ±1.55 nM
Procedure: as §2, with “The sensogram obtained for flow cell 1 was subtracted from the sensogram obtained for flow cell 2.” left out

| Binder | Kd [2] | Kd [4] | also measured |
| --- | --- | --- | --- |
| SEQ ID NO: 194, cysteine pairs C23-C27^a (designed binder, disulfides C23-C27 (intra)) VDFSDVGWNDWIVAPPGYHAFYCHGECPFPLADHLNSTNHAIVQTLVNSVAQAKHKQRKRLKSSCKRHPLY | 18.1 nM | – | Kd [1]: 18.1 nM |
| SEQ ID NO: 230, cysteine pairs C27-C65^a (designed binder, disulfides C27-C65 (intra)) VDFKDVGWNDHAVAPPGYHAFYCHGECPFPLADHLNSDNHAIVQTKVNSVGQAKRKGYKRLKSSCKRHPLY | 52.2 nM | – | Kd [3]: 52.2 nM |
| SEQ ID NO: 260, cysteine pairs C15-C15^b, C80-C114^a, C79-C112^a, C44-C48^a (designed binder, disulfides C15-C15 (inter), C80-C114 (intra), C79-C112 (intra), C44-C48 (intra), homodimer by intermolecular disulfide) AQAKHKQRKRLKSSCKRHPLYVDFSDVGWNDWIVAPPGYHAFYCHGECPFPLADHLNSTNHAIVQTLVNSVNSKIPKACCVPTELSAISMLYLDENEKVVLKNYQDMVVEGCGCR | 7.45 nM | – | Kd [1]: 7.45 nM |
| SEQ ID NO: 260, cysteine pairs C15-C15^b, C79-C114^b, C80-C112^b, C44-C48^a (designed binder, disulfides C15-C15 (inter), C79-C114 (inter), C80-C112 (inter), C44-C48 (intra), homodimer by intermolecular disulfide) AQAKHKQRKRLKSSCKRHPLYVDFSDVGWNDWIVAPPGYHAFYCHGECPFPLADHLNSTNHAIVQTLVNSVNSKIPKACCVPTELSAISMLYLDENEKVVLKNYQDMVVEGCGCR | – | 4.03 nM | – |
| SEQ ID NO: 260, cysteine pairs C15-C15^b, C80-C114^b, C79-C112^b, C44-C48^a (designed binder, disulfides C15-C15 (inter), C80-C114 (inter), C79-C112 (inter), C44-C48 (intra), homodimer by intermolecular disulfide) AQAKHKQRKRLKSSCKRHPLYVDFSDVGWNDWIVAPPGYHAFYCHGECPFPLADHLNSTNHAIVQTLVNSVNSKIPKACCVPTELSAISMLYLDENEKVVLKNYQDMVVEGCGCR | – | 4.04 nM | – |
| SEQ ID NO: 260, cysteine pairs C79-C114^b, C80-C112^b, C44-C48^a (designed binder, disulfides C79-C114 (inter), C80-C112 (inter), C44-C48 (intra), homodimer by intermolecular disulfide) AQAKHKQRKRLKSSCKRHPLYVDFSDVGWNDWIVAPPGYHAFYCHGECPFPLADHLNSTNHAIVQTLVNSVNSKIPKACCVPTELSAISMLYLDENEKVVLKNYQDMVVEGCGCR | – | 6.05 nM | – |
| SEQ ID NO: 260, cysteine pairs C79-C114^a, C80-C112^a, C44-C48^a (designed binder, disulfides C79-C114 (intra), C80-C112 (intra), C44-C48 (intra)) AQAKHKQRKRLKSSCKRHPLYVDFSDVGWNDWIVAPPGYHAFYCHGECPFPLADHLNSTNHAIVQTLVNSVNSKIPKACCVPTELSAISMLYLDENEKVVLKNYQDMVVEGCGCR | – | 6.17 nM | – |
| SEQ ID NO: 260, cysteine pairs C44-C48^a (designed binder, disulfides C44-C48 (intra)) AQAKHKQRKRLKSSCKRHPLYVDFSDVGWNDWIVAPPGYHAFYCHGECPFPLADHLNSTNHAIVQTLVNSVNSKIPKACCVPTELSAISMLYLDENEKVVLKNYQDMVVEGCGCR | – | 8.04 nM | – |
| SEQ ID NO: 324, cysteine pairs C80-C114^a, C79-C112^a, C44-C48^a (designed binder, disulfides C80-C114 (intra), C79-C112 (intra), C44-C48 (intra)) AQAKHKQRKRLKSSCKRHPLYVDFKDVGWNDHAVAPPGYHAFYCHGECPFPLADHLNSDNHAIVQTKVNSVNSKIPKACCVPTELSAISMLYLDENEKVVLKNYQDMVVEGCGCR | 7.22 nM | – | Kd [5]: 7.22 nM |
| SEQ ID NO: 324, cysteine pairs C44-C48^a (designed binder, disulfides C44-C48 (intra)) AQAKHKQRKRLKSSCKRHPLYVDFKDVGWNDHAVAPPGYHAFYCHGECPFPLADHLNSDNHAIVQTKVNSVNSKIPKACCVPTELSAISMLYLDENEKVVLKNYQDMVVEGCGCR | – | 8.75 nM | – |
| SEQ ID NO: 284, cysteine pairs C59-C59^b, C8-C43^b, C9-C41^b, C88-C92^a (designed binder, disulfides C59-C59 (inter), C8-C43 (inter), C9-C41 (inter), C88-C92 (intra), homodimer by intermolecular disulfide) NSKIPKACCVPTELSAISMLYLDENEKVVLKNYQDMVVEGCGCRAQAKHKQRKRLKSSCKRHPLYVDFSDVGWNDWIVAPPGYHAFYCHGECPFPLADHLNSTNHAIVQTLVNSV | 6.91 nM | – | Kd [6]: 6.91 nM |
| SEQ ID NO: 284, cysteine pairs C88-C92^a (designed binder, disulfides C88-C92 (intra)) NSKIPKACCVPTELSAISMLYLDENEKVVLKNYQDMVVEGCGCRAQAKHKQRKRLKSSCKRHPLYVDFSDVGWNDWIVAPPGYHAFYCHGECPFPLADHLNSTNHAIVQTLVNSV | – | 8.14 nM | – |
